The source of these data is patent US20070014720A1 (published 2007).

Test [1] addresses T1, human CD20 (human, UniProt P11836 1-297).
T1 sequence (looked up): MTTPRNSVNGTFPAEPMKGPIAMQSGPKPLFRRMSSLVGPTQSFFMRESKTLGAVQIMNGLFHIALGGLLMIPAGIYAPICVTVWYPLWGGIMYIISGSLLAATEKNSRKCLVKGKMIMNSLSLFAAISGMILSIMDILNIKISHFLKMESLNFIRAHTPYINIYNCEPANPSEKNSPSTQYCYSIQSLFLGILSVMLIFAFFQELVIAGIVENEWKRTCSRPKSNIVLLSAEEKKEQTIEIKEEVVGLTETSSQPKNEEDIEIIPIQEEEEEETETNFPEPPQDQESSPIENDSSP
In words: cell-based or functional assay.

Test [2] addresses T1, human CD20. The experiment in a line: FACS KD on SB cells expressing CD20 (GMF against mAb concentration, nonlinear fit). As to the method:
The affinity of purified antibodies against CD20 (mAbs 1.1.2, 1.2.1, 2.1.2, 1.3.3, 1.5.3, 1.10.3.1, 1.13.2), Rituximab (positive control), and B1 was determined by FACS. Briefly, SB cells expressing CD20 were resuspended in FACS buffer (2% FBS, 0.05% NaN₃) at a concentration of approximately 5 million cells/mL. HSB cells were also resuspended in FACS buffer at a concentration of approximately 9 million cells/mL. Cells were kept on ice. Purified antibodies were serially diluted in filtered 1×PBS (2×) across 11 wells in 96-well plates. The twelfth well in each row contained buffer only. 1×PBS and cells were added to each mAb well such that the final volume was […] and each well contained approximately 375,000 cells. The final molecular concentration ranges for the mAbs were as follows:
Plates were placed on a plate shaker for 3 hours at 4° C., then spun and washed 3× with PBS. 200 μL of 145 nM Cy5 goat α-human polyclonal antibody was added to each well, and 200 μL of 192 nM Cy5 goat α-mouse polyclonal antibody was added to the cells complexed with B1 antibody. Plates were then incubated for 40 minutes at 4° C., then spun and washed 3× with PBS.
The Geometric Mean Fluorescence (GMF) of 10,000 cells for each mAb concentration was determined using a FACSCalibur instrument. No significant nonspecific binding (no significant signal) was apparent from the HSB cells. In each row containing the SB cells, the signal from the twelfth well (containing buffer only) was subtracted from the signal from the first 11 wells. A nonlinear plot of GMF as a function of molecular mAb concentration was fit using Scientist software using the equation: […]

B1: mAb 1.3.3 (antibody, V domains shown)
VH: EVQLVQSGAEVKKPGESLKISCKGSGYSFTSYWIGWVRQMPGKGLEWMGIIYPGDSDTRYSPSFQGQVTISADKSITTAYLQWSSLKASDTAMYYCARHPSYGSGSPNFDYWGQGTLVTVSS
VL: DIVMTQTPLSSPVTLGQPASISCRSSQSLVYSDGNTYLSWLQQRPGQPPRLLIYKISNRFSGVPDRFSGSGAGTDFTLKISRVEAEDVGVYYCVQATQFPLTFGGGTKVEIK
notes: Human IgG1 kappa
Regarding B1, in the test with human CD20 [1], the “% Lysis Daudi 0.001 µg/ml ADCC” value was 63%, the “% Lysis Daudi 1 µg/ml ADCC” value is 88%, the “% Lysis Raji 0.001 µg/ml ADCC” value was determined as 9% and the “% Lysis Raji 1 µg/ml ADCC” value is 33%. Also, in the test with human CD20 [1], the “% Lysis Ramos 0.001 µg/ml ADCC” value came out at 10%, the “% Lysis Ramos 1 µg/ml ADCC” value is 58%, the “EC50 µg/ml Daudi CDC” value came out at 1.91 µg/mL and the “EC50 µg/ml Raji CDC” value is 0.22 µg/mL. In addition, in the test with human CD20 [1], the “EC50 µg/ml Ramos Apoptosis Alamar Blue” value was 0.0485 µg/mL, the “EC50 µg/ml Ramos Apoptosis Annexin V” value is 0.886 µg/mL, the “EC50 µg/ml Ramos Apoptosis Cell Titer Glo” value was 0.332 µg/mL and the “EC50 µg/ml Ramos Apoptosis WST-1” value is 0.0096 µg/mL. In addition, the “EC50 µg/ml Ramos CDC” value with human CD20 [1] was found to be 0.23 µg/mL. Moreover, binding with human CD20 [2] was put at a Kd of 8.9 nM.
